Target: HLA-A*02:01 (Homo sapiens, UniProt P04439, D140Y/D185E/D98H/E176V/E277Q/G131W/G231S/I119V/I121R/I166T/I218V/L300P/L318F/N151K/N90K/P208A/P217A/Q86G/Q94H/R138H/R169H/T345S)
Experiment: MHC binding assay: UV-ligand exchange with beta2m ELISA (exchange yield)
Details: binding to HLA-A*02:01, β2m ELISA
Procedure, shortened: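 Exchange yield reflects how much β2m remains bound, measured by ELISA: streptavidin capture of 100-fold diluted monomers, HRP anti-β2m at 37° C. for 1 h, TMB read at 450 nm. Monomers come from UV cleavage of a conditional HLA-A*02:01 ligand in the presence of the candidate peptide.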

Substance: 144 (YIMEPSIFNTL; listed as Homo sapiens) [compound 144]
- Peptide exchange (MHC class I binding score, peptide exchange yield): “+++” (≥50 = +++)

Substance: 366 (RLLDMGETDLML; listed as Homo sapiens) [compound 366]
- Peptide exchange (MHC class I binding score, peptide exchange yield): “+++” (≥50 = +++)

Substance: 457 (SLLPGNLVEKV; listed as Homo sapiens) [compound 457]
- Peptide exchange (MHC class I binding score, peptide exchange yield): “+++” (≥50 = +++)

Substance: 138 (YQYPRAILSV; listed as Homo sapiens) [compound 138]
- Peptide exchange (MHC class I binding score, peptide exchange yield): “+++” (≥50 = +++)

Substance: 93 (LLQAIKLYL; listed as Homo sapiens) [compound 93]
- Peptide exchange (MHC class I binding score, peptide exchange yield): “++” (≥20% = ++)

Substance: 171 (LLLPLQILL; listed as Homo sapiens) [compound 171]
- Peptide exchange (MHC class I binding score, peptide exchange yield): “+++” (≥50 = +++)

Substance: 476 (ALMERTGYSMV; listed as Homo sapiens) [compound 476]
- Peptide exchange (MHC class I binding score, peptide exchange yield): “+++” (≥50 = +++)

Substance: 431 (SLVNVVPKL; listed as Homo sapiens) [compound 431]
- Peptide exchange (MHC class I binding score, peptide exchange yield): “++” (≥20% = ++)

Substance: 139 (SVMEVNSGIYRV; listed as Homo sapiens) [compound 139]
- Peptide exchange (MHC class I binding score, peptide exchange yield): “+++” (≥50 = +++)

Substance: 619 (ALQDRVPLA; listed as Homo sapiens) [compound 619]
- Peptide exchange (MHC class I binding score, peptide exchange yield): “+++” (≥50 = +++)

Substance: 202 (ALLDQQGSRWTL; listed as Homo sapiens) [compound 202]
- Peptide exchange (MHC class I binding score, peptide exchange yield): “+++” (≥50 = +++)

Substance: 236 (GLLEAKVSL; listed as Homo sapiens) [compound 236]
- Peptide exchange (MHC class I binding score, peptide exchange yield): “+++” (≥50 = +++)

Substance: 219 (KLSDIGITV; listed as Homo sapiens) [compound 219]
- Peptide exchange (MHC class I binding score, peptide exchange yield): “+++” (≥50 = +++)

Substance: 224 (TLIDAQWVL; listed as Homo sapiens) [compound 224]
- Peptide exchange (MHC class I binding score, peptide exchange yield): “+++” (≥50 = +++)

Substance: 592 (RLLSAAENFL; listed as Homo sapiens) [compound 592]
- Peptide exchange (MHC class I binding score, peptide exchange yield): “+++” (≥50 = +++)

Substance: 238 (YLISFQTHI; listed as Homo sapiens) [compound 238]
- Peptide exchange (MHC class I binding score, peptide exchange yield): “+++” (≥50 = +++)

Substance: 468 (YLRSVGDGETV; listed as Homo sapiens) [compound 468]
- Peptide exchange (MHC class I binding score, peptide exchange yield): “+++” (≥50 = +++)

Substance: 135 (ALSEVDFQL; listed as Homo sapiens) [compound 135]
- Peptide exchange (MHC class I binding score, peptide exchange yield): “+++” (≥50 = +++)

Substance: 318 (GLINTGVLSV; listed as Homo sapiens) [compound 318]
- Peptide exchange (MHC class I binding score, peptide exchange yield): “++” (≥20% = ++)

Substance: 580 (LLMENAERV; listed as Homo sapiens) [compound 580]
- Peptide exchange (MHC class I binding score, peptide exchange yield): “++” (≥20% = ++)

Substance: 26 (ALLELAEEL; listed as Homo sapiens) [compound 26]
- Peptide exchange (MHC class I binding score, peptide exchange yield): “+++” (≥50 = +++)

Substance: 240 (ILLEQAFYL; listed as Homo sapiens) [compound 240]
- Peptide exchange (MHC class I binding score, peptide exchange yield): “+++” (≥50 = +++)

Substance: 392 (ALLHPQGFEV; listed as Homo sapiens) [compound 392]
- Peptide exchange (MHC class I binding score, peptide exchange yield): “++” (≥20% = ++)

Substance: 200 (LLFGSVQEV; listed as Homo sapiens) [compound 200]
- Peptide exchange (MHC class I binding score, peptide exchange yield): “+++” (≥50 = +++)

Substance: 298 (VMITKLVEV; listed as Homo sapiens) [compound 298]
- Peptide exchange (MHC class I binding score, peptide exchange yield): “+++” (≥50 = +++)

Substance: 339 (GLWEIENNPTVKA; listed as Homo sapiens) [compound 339]
- Peptide exchange (MHC class I binding score, peptide exchange yield): “++++” (≥75% = ++++)

Substance: 130 (FLWNGEDSALL; listed as Homo sapiens) [compound 130]
- Peptide exchange (MHC class I binding score, peptide exchange yield): “+++” (≥50 = +++)

Substance: 27 (ILADIVISA; listed as Homo sapiens) [compound 27]
- Peptide exchange (MHC class I binding score, peptide exchange yield): “+++” (≥50 = +++)

Substance: 244 (SLFGGTEITI; listed as Homo sapiens) [compound 244]
- Peptide exchange (MHC class I binding score, peptide exchange yield): “+++” (≥50 = +++)

Substance: 275 (YLVYILNEL; listed as Homo sapiens) [compound 275]
- Peptide exchange (MHC class I binding score, peptide exchange yield): “++” (≥20% = ++)

Substance: 364 (LLQNEQFEL; listed as Homo sapiens) [compound 364]
- Peptide exchange (MHC class I binding score, peptide exchange yield): “+++” (≥50 = +++)

Substance: 380 (TLIEDEIATI; listed as Homo sapiens) [compound 380]
- Peptide exchange (MHC class I binding score, peptide exchange yield): “++” (≥20% = ++)

Substance: 550 (FLYDEIEAEVNL; listed as Homo sapiens) [compound 550]
- Peptide exchange (MHC class I binding score, peptide exchange yield): “+++” (≥50 = +++)

Substance: 579 (NLMEMVAQL; listed as Homo sapiens) [compound 579]
- Peptide exchange (MHC class I binding score, peptide exchange yield): “++” (≥20% = ++)

Substance: 206 (VLQEGKLQKLAQL; listed as Homo sapiens) [compound 206]
- Peptide exchange (MHC class I binding score, peptide exchange yield): “+++” (≥50 = +++)

Substance: 458 (SLIDKLYNI; listed as Homo sapiens) [compound 458]
- Peptide exchange (MHC class I binding score, peptide exchange yield): “++” (≥20% = ++)

Substance: 585 (ALWDLAADKQTL; listed as Homo sapiens) [compound 585]
- Peptide exchange (MHC class I binding score, peptide exchange yield): “++++” (≥75% = ++++)

Substance: 258 (ELAERVPAI; listed as Homo sapiens) [compound 258]
- Peptide exchange (MHC class I binding score, peptide exchange yield): “++” (≥20% = ++)

Substance: 344 (YLQDQHLLLTV; listed as Homo sapiens) [compound 344]
- Peptide exchange (MHC class I binding score, peptide exchange yield): “+++” (≥50 = +++)

Substance: 583 (ILANDGVLLAA; listed as Homo sapiens) [compound 583]
- Peptide exchange (MHC class I binding score, peptide exchange yield): “+++” (≥50 = +++)

Substance: 72 (SLLELDGINL; listed as Homo sapiens) [compound 72]
- Peptide exchange (MHC class I binding score, peptide exchange yield): “+++” (≥50 = +++)

Substance: 212 (ALWDQDNLSV; listed as Homo sapiens) [compound 212]
- Peptide exchange (MHC class I binding score, peptide exchange yield): “++” (≥20% = ++)

Substance: 279 (ALWGGTQPLL; listed as Homo sapiens) [compound 279]
- Peptide exchange (MHC class I binding score, peptide exchange yield): “++” (≥20% = ++)

Substance: 596 (ALLDQTKTLAESAL; listed as Homo sapiens) [compound 596]
- Peptide exchange (MHC class I binding score, peptide exchange yield): “+++” (≥50 = +++)

Substance: 538 (LLLAHIIAL; listed as Homo sapiens) [compound 538]
- Peptide exchange (MHC class I binding score, peptide exchange yield): “++” (≥20% = ++)

Substance: 433 (AMLNEPWAV; listed as Homo sapiens) [compound 433]
- Peptide exchange (MHC class I binding score, peptide exchange yield): “+++” (≥50 = +++)

Substance: 621 (VLMDRLPSLL; listed as Homo sapiens) [compound 621]
- Peptide exchange (MHC class I binding score, peptide exchange yield): “++++” (≥75% = ++++)

Substance: 132 (LLVEQPPLAGV; listed as Homo sapiens) [compound 132]
- Peptide exchange (MHC class I binding score, peptide exchange yield): “+++” (≥50 = +++)

Substance: 333 (FLPDANSSV; listed as Homo sapiens) [compound 333]
- Peptide exchange (MHC class I binding score, peptide exchange yield): “++” (≥20% = ++)

Substance: 25 (FLPDEPYIKV; listed as Homo sapiens) [compound 25]
- Peptide exchange (MHC class I binding score, peptide exchange yield): “+++” (≥50 = +++)

Substance: 250 (ALSEEGLLVYL; listed as Homo sapiens) [compound 250]
- Peptide exchange (MHC class I binding score, peptide exchange yield): “+++” (≥50 = +++)

Substance: 500 (SLMEDQVLQL; listed as Homo sapiens) [compound 500]
- Peptide exchange (MHC class I binding score, peptide exchange yield): “+++” (≥50 = +++)

Substance: 61 (FLQGYQLHL; listed as Homo sapiens) [compound 61]
- Peptide exchange (MHC class I binding score, peptide exchange yield): “++++” (≥75% = ++++)

Substance: 243 (LLLNELPSV; listed as Homo sapiens) [compound 243]
- Peptide exchange (MHC class I binding score, peptide exchange yield): “+++” (≥50 = +++)

Substance: 441 (ALLENPKMEL; listed as Homo sapiens) [compound 441]
- Peptide exchange (MHC class I binding score, peptide exchange yield): “+++” (≥50 = +++)

Substance: 174 (ALAQYLITA; listed as Homo sapiens) [compound 174]
- Peptide exchange (MHC class I binding score, peptide exchange yield): “+++” (≥50 = +++)

Substance: 395 (ALALGGIAVV; listed as Homo sapiens) [compound 395]
- Peptide exchange (MHC class I binding score, peptide exchange yield): “++++” (≥75% = ++++)

Substance: 331 (KVDTVWVNV; listed as Homo sapiens) [compound 331]
- Peptide exchange (MHC class I binding score, peptide exchange yield): “+++” (≥50 = +++)

Substance: 558 (GLLENIPRV; listed as Homo sapiens) [compound 558]
- Peptide exchange (MHC class I binding score, peptide exchange yield): “+++” (≥50 = +++)

Substance: 99 (ALVSKGLATV; listed as Homo sapiens) [compound 99]
- Peptide exchange (MHC class I binding score, peptide exchange yield): “++” (≥20% = ++)

Substance: 57 (TLAELQPPVQL; listed as Homo sapiens) [compound 57]
- Peptide exchange (MHC class I binding score, peptide exchange yield): “+++” (≥50 = +++)

Source: patent US10280205B2, “Method for treating cancer with an activated T lymphocyte that selectively recognizes a cancer cell consisting of specific peptide” (immatics biotechnologies GmbH, priority 2015, dated 2019)
